Assay [1] deals with human CD22 (human) (UniProt P20273). Kind of assay: flow cytometry on K562.huCD22.Luc cells against parental K562 cells.
Assay [2] deals with human CD20 (human) (UniProt P11836). The assay can be described thus: flow cytometry on Raji cells (CD20 on the cell surface), serial dilution of the mAb, detection with PE-conjugated mouse anti-human IgG1Fc, MFI.
For assay [3] the target is unchanged. Described as above. This is another data set of the same source.
Assay [4] addresses human CD19, CD20 and CD22 on CD19+CD20+CD22+ tri-positive B lymphoma cells (Raji, Daudi) (human), P15391. Kind of assay: cell-based or functional assay.

Read-outs that look alike come from different tables or passages of the source.

Chain of UniProt P11836 (P11836 whole entry): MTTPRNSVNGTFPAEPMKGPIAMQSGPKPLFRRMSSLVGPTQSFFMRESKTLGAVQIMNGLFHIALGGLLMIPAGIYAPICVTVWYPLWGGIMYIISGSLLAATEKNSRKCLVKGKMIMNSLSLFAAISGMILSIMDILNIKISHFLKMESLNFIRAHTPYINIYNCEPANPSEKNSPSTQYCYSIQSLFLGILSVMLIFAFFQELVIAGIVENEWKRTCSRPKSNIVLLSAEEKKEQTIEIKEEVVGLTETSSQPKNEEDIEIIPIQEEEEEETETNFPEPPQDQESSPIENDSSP

Consider “PE conjugated anti-human CD22 antibody (Miltenyi Biotec. Cat. No. 130-105-086)”, for which the MFI fold over K562 cells (negative control) in assay [1] was 642 fold.

As a reminder, the EC50 is the midpoint of the concentration-response curve. Read a low EC50 as an effect from little substance. Molecule Rituximab Fab-huIgG1Fc mAb (antibody) returned an EC50 in assay [2] of 8.1 nM.

On to Leu16 Fab-huIgG1Fc mAb (antibody), for which the EC50 in assay [3] worked out at 13.2 nM; in assay [2] it was 8.5 nM.

B1: AIO-8C1 CAR (protein)
chain: QVQLVESGGGSVQAGGSLRLSCGASGNINSRNCMGWFRQAPGKEREGVAAIGQVTGRSYYVDSVKGRFTISLDNAKNTLYLQMNTLKPEDTAMYYCAAAPGCLLSALRSADYRNWGQGTQVTVSSGGGGSEVQLVESGPGLVKPSQTLSLTCTVSGASITTGEFYWNWFRQPPGKGLEWMGAIAASGSTTYSPSFESRTSISRDTSENQFYLQLSSVTPEDTAVYYCGRSFGVAAVTTGQNRGQGTQVTVSSGGGGSQIQLVESGGGLVQPGGSLRLSCAASGFTFSNYPMTWLRQAPGKGLESVSDITSGGDRPYYADSVKGRFTISRDNAKNMLYLEMNSLKTEDTAVYYCATWDRTLTGQGTQVTVSSTSTTTPAPRPPTPAPTIASQPLSLRPEACRPAAGGAVHTRGLDFACDIYIWAPLAGTCGVLLLSLVITLYCKRGRKKLLYIFKQPFMRPVQTTQEEDGCSCRFPEEEEGGCELRVKFSRSADAPAYQQGQNQLYNELNLGRREEYDVLDKRRGRDPEMGGKPRRKNPQEGLYNELQKDKMAEAYSEIGMKGERRRGKGHDGLYQGLSTATKDTYDALHMQALPPR
For B1, the IFN-γ release in co-culture with Raji cells, 24 hours, against AIO-7C1 CAR-T cells in assay [4] amounted to 2 fold.

The values above are taken from patent US20230257475A1.
